The source of these data is patent US20220289857A1 (Kyowa Kirin, published 2022).

For experiment [1], the target named is T1, human Fn14 (full length) on cells (human, UniProt Q9NP84 28-129).
T1 sequence: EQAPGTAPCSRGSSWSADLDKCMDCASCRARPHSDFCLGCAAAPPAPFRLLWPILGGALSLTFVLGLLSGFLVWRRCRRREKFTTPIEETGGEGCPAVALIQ
As to the kind of experiment: cell-based or functional assay.

In experiment [2] the target is T2, human Fn14 Subdomain 2 peptide (AA51-70), biotinylated (human, added C-terminal Lys carries Ahx-biotin; C-terminal amide).
T2 peptide: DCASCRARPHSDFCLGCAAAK
As to the kind of experiment: biolayer interferometry (ForteBio Octet); biotinylated peptide on streptavidin biosensor, response at 120 s of association. The protocol: (§1) A ForteBio Octet Qke instrument (ForteBio) was used to measure the ability of purified antibodies to bind Fn14 peptides. The assays were performed at 30° C. in 96-well half area plates (Grenier, cat# 675076), with agitation set to 1000 rpm, in kinetic buffer (provided in the assay kit) to minimize nonspecific interactions. Biosensor tips were equilibrated in kinetic buffer for 600 s prior to use. Soluble biotinylated peptides (20 μg/ml, Subdomain 1 (AA30-50): […]-[K-Ahx-biotin]-amide (SEQ ID NO: 182) and Subdomain 2 (AA51-70): […]-[K-Ahx-biotin]-amide (SEQ ID NO: 183) synthesized by 21′ Century Biochemicals) in kinetic buffer were immobilized on streptavidin-coated biosensors (ForteBio, cat# 18-5020) for 300 seconds. […] Purified antibodies (20 μg/m1) were allowed to bind the immobilized peptides. Association was measured for 300 seconds, using the high sensitivity kinetics setting. To characterize the binding properties of the antibody candidates, the response (nm) at t =120 seconds from the start of the association step was recorded. All values were compared to a control sample (isotype antibody).
For orientation: In BLI a coated tip is dipped into the sample, and binding shifts an interference pattern.

Experiment [3] deals with T3, human Fn14 Subdomain 1 peptide (AA30-50), biotinylated (human, added C-terminal Lys carries Ahx-biotin; C-terminal amide).
T3 peptide: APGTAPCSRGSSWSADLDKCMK
The experiment can be described thus: biolayer interferometry (ForteBio Octet); biotinylated peptide on streptavidin biosensor, antibody in solution, response at 120 s of association. The protocol:
as §1

Experiment [4] concerns the target T4, His-SUMO-huFn14 (soluble human Fn14 aa 28-75 with N-terminal 6xHis-SUMO tag) (human).
T4 construct: also called His-SUMO-Fn14; His-SUMO-hFn14
As to the kind of experiment: SPR Biacore T200; His-SUMO-huFn14 amine-coupled, Fab analyte; 1:1 fit. How it is done:
(§2) In order to kinetically analyze the binding activity of anti-Fn14 mouse antibodies 41c, R35B9, and CRCBT-06-002 to recombinant human and cynomolgus macaque Fn14 proteins, the binding activity was measured by surface plasmon resonance method (SPR). Antibodies were generated as described herein. All of the following procedures were carried out using a Biacore T200 (GE Healthcare Bio-Sciences). To determine antibody affinity to human Fn14, recombinant human His-SUMO-Fn14 was immobilized on a CMS sensor chip (GE Healthcare Bio-Sciences) by amine coupling chemistry. In particular, the kinetic assay was carried out by immobilizing on the chip approximately 20-30 RU of recombinant protein, in order to achieve a low protein immobilization level. To determine antibody affinity to cynomolgus macaque Fn14, polyclonal anti-GST antibodies were immobilized on a CMS sensor chip (GE Healthcare Bio-Sciences) by amine coupling chemistry. In particular, after immobilizing approximately 1500 RU of anti-GST capture antibody onto the chip, cynomolgus macaque GST-Fn14 in culture supernatant was allowed to run for 5 minutes at a flow rate of 30 μL/min in order to achieve a low capture level of approximately 20 RU. Thereafter, antibody Fab fragments, serially diluted from a high concentration, were allowed to run at a flow rate of 30 μL/min onto the chip for 300 seconds. The dissociation time was 1800 seconds and the binding curves were measured at 25° C. Regeneration was performed with 10 mM glycine pH 1.5 for 30 seconds. The raw data were double referenced by subtraction of the signals from a reference flow cell without immobilized ligand and a buffer blank.
(§3) A sensorgram corresponding to each concentration was obtained (see FIG. 5). Analysis was carried out using a 1:1 Langmuir fit model using the analysis software attached to the apparatus, Biacore T200 Evaluation software (Biacore), thereby calculating an association rate constant ka [M-1s-1] and a dissociation rate constant kd [s-1] for the recombinant Fn14 proteins. […] Cross-reactivity of anti-Fn14 mouse antibodies to recombinant mouse GST-Fn14 protein was measured as described above.
Background: In SPR one partner is held on a chip, and binding of the other changes the refractive index at the surface.

Experiment [5] deals with T5, cynomolgus macaque Fn14-GST (cynomolgus macaque (Macaca fascicularis)).
T5 construct: Used from culture supernatant, captured by anti-GST; also called cyno Fn14-GST; CynoFn14
T5 sequence (chain, as listed by the source): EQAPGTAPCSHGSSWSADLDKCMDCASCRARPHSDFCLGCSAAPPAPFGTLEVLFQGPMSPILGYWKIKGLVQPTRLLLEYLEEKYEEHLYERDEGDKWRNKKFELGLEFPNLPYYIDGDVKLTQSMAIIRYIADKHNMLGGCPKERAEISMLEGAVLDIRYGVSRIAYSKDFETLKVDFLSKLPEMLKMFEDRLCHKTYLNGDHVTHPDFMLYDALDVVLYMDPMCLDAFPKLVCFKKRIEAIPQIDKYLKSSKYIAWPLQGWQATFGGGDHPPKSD
The experiment can be described thus: SPR Biacore T200; cyno Fn14-GST captured by anti-GST, Fab analyte; 1:1 fit. How it is done:
as §2, §3

Experiment [6] has as its target T4, His-SUMO-huFn14 (soluble human Fn14 aa …). The experiment can be described thus: SPR Biacore T200; His-SUMO-huFn14 amine-coupled, Fab analyte; average of two runs. The protocol:
(§4) In order to kinetically analyze the binding activity of anti-Fn14 mouse antibodies 41c, R35B9, and CRCBT-06-002 to recombinant human and cynomolgus macaque Fn14 proteins, the binding activity was measured by surface plasmon resonance method (SPR). Antibodies were generated as described herein. All of the following procedures were carried out using a Biacore T200 (GE Healthcare Bio-Sciences). To determine antibody affinity to human Fn14, recombinant human His-SUMO-Fn14 was immobilized on a CMS sensor chip (GE Healthcare Bio-Sciences) by amine coupling chemistry. In particular, the kinetic assay was carried out by immobilizing on the chip approximately 20-30 RU of recombinant protein, in order to achieve a low protein immobilization level. To determine antibody affinity to cynomolgus macaque Fn14, polyclonal anti-GST antibodies were immobilized on a CMS sensor chip (GE Healthcare Bio-Sciences) by amine coupling chemistry. […] The dissociation time was 1800 seconds and the binding curves were measured at 25° C. […]
(§5) A sensorgram corresponding to each concentration was obtained (see FIG. 5). […] Cross-reactivity of anti-Fn14 mouse antibodies to recombinant mouse GST-Fn14 protein was measured as described above.

Experiment [7] addresses T5, cynomolgus macaque Fn14-GST. As to the kind of experiment: SPR Biacore T200; cyno Fn14-GST captured by anti-GST, Fab analyte; average of two runs. The protocol:
as §4, §5

For another experiment, the target named is T6, mouse Fn14-GST (mouse).
T6 construct: also called mouse GST-Fn14
As to the kind of experiment: SPR (Biacore T200); mouse Fn14-GST captured by immobilized anti-GST antibody, analyte at 10 nM. How it is done: as §4, §5

Experiment [8] concerns the target T7, mouse Fn14 (full length) on transfected 293F cells (mouse, UniProt Q9CR75 28-129).
T7 sequence: T1 sequence with A7S, R11S, R29P, P47H, T62V, F63L, G66A, L68V, G70S, A97G
As to the kind of experiment: flow cytometry, hybridoma supernatant on 293F cells transfected with mouse Fn14, detected with anti-mouse IgG PE. The protocol:
FIG. 1 depicts binding of anti-Fn14 hybridoma supernatants to human and mouse Fn14 transfected cells. […] Hybridoma supernatant binding was detected using anti-mouse IgG PE.
Specifically, the binding activity of hybridoma culture supernatants or purified antibodies to Fn14-expressing cells was evaluated by flow cytometry (FCM). The cell lines evaluated by FCM were Fn14-transfected human embryonic kidney 293F cells (ThermoFisher, cat# R79007) and two cell lines endogenously expressing Fn14, human kidney-derived HK2 cells (ATCC, cat# CRL-2190) and rat kidney-derived NRK-52E cells (Japanese Collection of Research Bioresources Cell Bank (JCRB), cat# IF050480). For FCM analysis, Fn14-expressing cells were harvested using 0.25% trypsin-EDTA (Nacalai Tesque), washed with PBS, and resuspended in SM (Staining Medium: PBS containing 2% FBS, 1 mM EDTA, 0.05% sodium azide). Cells were then seeded in a 96-well plate at 1 ×10⁵ cells per well. Hybridoma supernatant or purified antibody (1 μg/mL final concentration) was added and the cells were incubated at 4° C. for 60 minutes. Cells were then washed with SM, resuspended in goat F(ab′)2 anti-mouse IgG-PE (Southern Biotech Inc.), diluted 1:500 in SM and incubated at 4° C. for 60 minutes. […] Fluorescence intensity was measured by FCM (BD Biosciences, FACS CantoII) and the data were analyzed using FlowJo software (Tomy Digital Biology Co., Ltd.).

In experiment [9] the target is T8, rat Fn14, endogenous on NRK-52E cells (rat, UniProt Q9CR75 28-129 (mouse entry)).
T8 construct: Endogenous protein of rat kidney cells; also called NRK52E-A15/Luc cells
T8 sequence (Q9CR75 other isoform, or with tags, fused parts or gaps limits assumed): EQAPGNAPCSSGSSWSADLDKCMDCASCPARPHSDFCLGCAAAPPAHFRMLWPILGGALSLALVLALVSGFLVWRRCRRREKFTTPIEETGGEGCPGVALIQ
The experiment can be described thus: flow cytometry on NRK-52E cells (endogenous rat Fn14), purified antibody 1 µg/mL, detected with anti-mouse IgG PE. The protocol: Primary antibodies were used at a concentration of 1 μg/mL and binding was detected using anti-mouse IgG PE.
Specifically, the binding activity of hybridoma culture supernatants or purified antibodies to Fn14-expressing cells was evaluated by flow cytometry (FCM). The cell lines evaluated by FCM were Fn14-transfected human embryonic kidney 293F cells (ThermoFisher, cat# R79007) and two cell lines endogenously expressing Fn14, human kidney-derived HK2 cells (ATCC, cat# CRL-2190) and rat kidney-derived NRK-52E cells (Japanese Collection of Research Bioresources Cell Bank (JCRB), cat# IF050480). For FCM analysis, Fn14-expressing cells were harvested using 0.25% trypsin-EDTA (Nacalai Tesque), washed with PBS, and resuspended in SM (Staining Medium: PBS containing 2% FBS, 1 mM EDTA, 0.05% sodium azide). Cells were then seeded in a 96-well plate at 1 ×10⁵ cells per well. Hybridoma supernatant or purified antibody (1 μg/mL final concentration) was added and the cells were incubated at 4° C. for 60 minutes. Cells were then washed with SM, resuspended in goat F(ab′)2 anti-mouse IgG-PE (Southern Biotech Inc.), diluted 1:500 in SM and incubated at 4° C. for 60 minutes. Cells were washed with SM and finally resuspended in 50 μL of SM. Fluorescence intensity was measured by FCM (BD Biosciences, FACS CantoII) and the data were analyzed using FlowJo software (Tomy Digital Biology Co., Ltd.).

Substitutions are numbered along the chain they refer to. Names may count otherwise. “And” between values parts separate entries of the source, which are not always exact repeats. Equal values may be shown once.

Usually Kd stands for the constant that tells how readily two partners part at equilibrium. A word on the koff: it is a measure of how fast the partners let go of each other. Broadly, the kon is the second-order rate constant of association. High values mean faster complex formation, low ones slower complex formation.

T4 sequence (chain, as listed by the source limits assumed): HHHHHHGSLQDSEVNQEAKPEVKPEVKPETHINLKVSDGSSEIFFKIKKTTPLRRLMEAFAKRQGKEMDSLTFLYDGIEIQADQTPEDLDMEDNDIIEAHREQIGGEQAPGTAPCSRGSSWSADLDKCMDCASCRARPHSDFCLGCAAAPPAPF

B1: 41c recombinant mouse IgG1(D265A), kappa antibody (A291/A290) (antibody, V domains shown)
VH: EVQLQQSGPELVKPGASVKMSCKASGYTFTDYNMHWVKQSHGKSLEWIGYINPNNGGTNYNQKFKGKATLTVNKSSRSAYMEFRSLTSEDSAVYYCASSGWFTYWGQGTLVTVSA
VL: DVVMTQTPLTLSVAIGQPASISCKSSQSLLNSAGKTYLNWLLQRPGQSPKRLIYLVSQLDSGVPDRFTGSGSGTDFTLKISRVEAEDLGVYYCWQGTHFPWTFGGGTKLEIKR
Turning to B1, in experiment [1], the “ICAM-1 MFI on HRMC, 250 ng/mL rhTWEAK, mAb 0.1 µg/mL” value was 13100 MFI. The values for the binding result in [2] and in experiment [3] were “no binding (tested: 20 µg/mL)” and “binds”, respectively.

B2: R35B9 Fab (enzymatic digest of the mouse IgG1 antibody) (Fab, V domains shown, not shown: a dimerising Fc or GST)
VH: B1 VH with T28I, T30Q, Y50S, N54R, G57W
VL: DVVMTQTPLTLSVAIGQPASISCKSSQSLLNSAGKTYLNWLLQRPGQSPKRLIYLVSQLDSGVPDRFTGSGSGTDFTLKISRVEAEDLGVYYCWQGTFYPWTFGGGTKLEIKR
notes: Made with the mouse IgG1 Fab and F(ab')2 preparation kit; also called R35B9 Fab LM042817
As for B2, the Kd in experiment [4] was 0.205 nM and 0.21 nM; in [5], 0.235 nM and 0.222 nM; in experiment [6], 0.208 nM; in [7], 0.229 nM. For the same molecule, the koff is 0.00063 s⁻¹ and 0.000427 s⁻¹ in [4]; 0.000342 s⁻¹ and 0.00038 s⁻¹ in [5]. For the same molecule, the kon in [4] was 3.07e+06 M⁻¹ s⁻¹ and 2.03e+06 M⁻¹ s⁻¹; in experiment [5], 1.46e+06 M⁻¹ s⁻¹ and 1.71e+06 M⁻¹ s⁻¹. For the same molecule, the binding result with mouse Fn14-GST was “binds”.

B3: KO41c mouse monoclonal antibody (hybridoma-derived) (antibody, V domains shown)
VH: B1 VH
VL: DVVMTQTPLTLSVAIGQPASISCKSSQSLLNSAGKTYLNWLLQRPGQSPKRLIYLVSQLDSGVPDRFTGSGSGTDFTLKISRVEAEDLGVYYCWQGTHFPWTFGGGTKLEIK
notes: Hybridoma supernatant or purified antibody from an Fn14 knockout mouse; native mouse IgG, kappa
In the case of B3, the binding result in experiment [8] and in experiment [9] was “binds” each time.
